Where “and” joins values, the source holds several entries; their conditions need not be identical. Identical values can stand only once.
B19: TTD of UHRF1 (residues 134–285) (domain or fragment, human, UniProt Q96T88 134-285, looked up)
chain: LYKVNEYVDARDTNMGAWFEAQVVRVTRKAPSRDEPCSSTSRPALEEDVIYHVKYDDYPENGVVQMNSRDVRARARTIIKWQDLEVGQVVMLNYNPDNPKERGFWYDAEISRKRETRTARELYANVVLGDDSLNDCRIIFVDEVFKIERPGE
notes: 15N- or 13C/15N-labelled for the NMR work; also called tandem Tudor domain; the isolated TTD

Tests used:
Details in all cases: both partners purified
[1] = molecular target: T1, SRA of UHRF1 (residues 414–617) (human, UniProt Q96T88 414-617); experiment: ITC; 0.05 mM protein in the cell, 0.5 mM protein or peptide in the syringe, iTC200, 18 °C, 10 mM HEPES pH 8.0, 100 mM NaCl
T1 construct: human UHRF1, SRA domain, residues 414–617; also called SET-and-RING-associated domain
T1 sequence (looked up): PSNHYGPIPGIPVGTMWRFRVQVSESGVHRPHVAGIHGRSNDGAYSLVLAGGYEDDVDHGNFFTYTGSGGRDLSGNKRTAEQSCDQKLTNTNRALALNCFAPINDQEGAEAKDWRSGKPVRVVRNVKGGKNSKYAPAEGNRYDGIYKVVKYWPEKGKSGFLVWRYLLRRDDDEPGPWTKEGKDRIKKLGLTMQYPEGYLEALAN

[2] = molecular target: B19; experiment: as above
[3] = molecular target: B19; experiment: NMR solution structure; TTD/Spacer (627–674) 1:1.2, PBS, 0.01% NaN3, pH 7.4, 10% D2O, 20 °C
[4] = molecular target: T2, TTD–PHD R295D/R296D (human, UniProt Q96T88 134-366, R295D | R296D); experiment: ITC; 0.05 mM protein in the cell, 0.5 mM protein or peptide in the syringe, iTC200, 18 °C, 10 mM HEPES pH 8.0, 100 mM NaCl
T2 sequence (looked up): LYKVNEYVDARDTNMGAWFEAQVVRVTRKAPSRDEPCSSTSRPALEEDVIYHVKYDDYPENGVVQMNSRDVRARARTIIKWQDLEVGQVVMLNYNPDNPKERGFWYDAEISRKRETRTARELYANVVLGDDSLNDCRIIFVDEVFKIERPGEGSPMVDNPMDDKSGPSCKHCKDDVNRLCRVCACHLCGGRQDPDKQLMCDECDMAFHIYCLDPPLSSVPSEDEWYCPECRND

[5] = molecular target: T3, TTD–PHD of UHRF1 (residues 134–366) (human, UniProt Q96T88 134-366); experiment: as above
T3 sequence (looked up): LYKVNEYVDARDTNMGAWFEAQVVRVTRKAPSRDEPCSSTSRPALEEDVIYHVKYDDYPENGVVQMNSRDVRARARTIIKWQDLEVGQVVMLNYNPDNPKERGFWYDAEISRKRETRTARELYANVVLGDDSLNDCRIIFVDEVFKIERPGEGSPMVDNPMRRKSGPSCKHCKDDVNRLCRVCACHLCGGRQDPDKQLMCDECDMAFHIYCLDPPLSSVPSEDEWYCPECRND

[6] = molecular target: B19; experiment: ITC; competition ITC: protein pre-incubated with the competing peptide or protein (1:2 molar ratio if not specified) for 10 min, then as a3
[7] = molecular target: T4, SRA–Spacer of UHRF1 (residues 414–674) (human, UniProt Q96T88 414-674); experiment: pull-down; GST pull-down: 15 μg GST-tagged protein with 40 μg recombinant protein in 500 μl 20 mM HEPES-NaOH pH 8.0, 100 mM NaCl, 5% glycerol, 0.1% Triton X-100, 4 °C, glutathione resin, Coomassie staining; some panels with increasing hm-DNA
T4 sequence (looked up): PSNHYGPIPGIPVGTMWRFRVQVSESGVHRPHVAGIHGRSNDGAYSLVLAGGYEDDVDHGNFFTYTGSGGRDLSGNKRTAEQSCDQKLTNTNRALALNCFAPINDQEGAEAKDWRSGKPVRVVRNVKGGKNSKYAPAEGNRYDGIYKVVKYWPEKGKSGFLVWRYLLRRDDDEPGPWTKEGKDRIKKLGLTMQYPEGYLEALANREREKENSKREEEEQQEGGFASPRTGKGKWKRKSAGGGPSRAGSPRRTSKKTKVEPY

[8] = molecular target: T4, SRA–Spacer of UHRF1 (residues 414–674); experiment: ITC; 0.05 mM protein in the cell, 0.5 mM protein or peptide in the syringe, iTC200, 18 °C, 10 mM HEPES pH 8.0, 100 mM NaCl

B1: PHD of UHRF1 (residues 307–366) (domain or fragment, human, UniProt Q96T88 307-366, looked up)
chain: DDVNRLCRVCACHLCGGRQDPDKQLMCDECDMAFHIYCLDPPLSSVPSEDEWYCPECRND
notes: human UHRF1, PHD, residues 307–366; also called plant homeodomain; the isolated PHD
Kd [1]: 26.7 µM

B2: Spacer^Δ660–664 (domain or fragment, human, UniProt Q96T88 587-674, looked up)
chain: PGPWTKEGKDRIKKLGLTMQYPEGYLEALANREREKENSKREEEEQQEGGFASPRTGKGKWKRKSAGGGPSRATSKKTKVEPY
binding result [2]: binds

B3: Spacer^Δ650–654 (domain or fragment, human, UniProt Q96T88 587-674, looked up)
chain: PGPWTKEGKDRIKKLGLTMQYPEGYLEALANREREKENSKREEEEQQEGGFASPRTGKGKWKRGPSRAGSPRRTSKKTKVEPY
binding result [2]: binds

B4: Spacer^Δ655–659 (domain or fragment, human, UniProt Q96T88 587-674, looked up)
chain: PGPWTKEGKDRIKKLGLTMQYPEGYLEALANREREKENSKREEEEQQEGGFASPRTGKGKWKRKSAGGGSPRRTSKKTKVEPY
binding result [2]: binds

B5: Spacer^Δ665–669 (domain or fragment, human, UniProt Q96T88 587-674, looked up)
chain: PGPWTKEGKDRIKKLGLTMQYPEGYLEALANREREKENSKREEEEQQEGGFASPRTGKGKWKRKSAGGGPSRAGSPRRKVEPY
binding result [2]: binds

B6: Spacer^Δ670–674 (domain or fragment, human, UniProt Q96T88 587-674, looked up)
chain: PGPWTKEGKDRIKKLGLTMQYPEGYLEALANREREKENSKREEEEQQEGGFASPRTGKGKWKRKSAGGGPSRAGSPRRTSKKT
binding result [2]: binds

B7: Spacer^642–674 (domain or fragment, human, UniProt Q96T88 642-674, looked up)
chain: TGKGKWKRKSAGGGPSRAGSPRRTSKKTKVEPY
binding result [2]: binds

B8: Spacer^Δ642–651 (domain or fragment, human, UniProt Q96T88 587-674, looked up)
chain: PGPWTKEGKDRIKKLGLTMQYPEGYLEALANREREKENSKREEEEQQEGGFASPRAGGGPSRAGSPRRTSKKTKVEPY
binding result [2]: binds

B9: truncated Spacer (residues 627–674) (domain or fragment, human, UniProt Q96T88 627-674, looked up)
chain: REEEEQQEGGFASPRTGKGKWKRKSAGGGPSRAGSPRRTSKKTKVEPY
notes: modified pRSF-Duet-1 vector; unlabelled or 15N-labelled in the NMR samples; residues 643–655 were built in the model
binding result [3]: binds

B10: Spacer of UHRF1 (residues 587–674) (domain or fragment, human, UniProt Q96T88 587-674, looked up)
chain: PGPWTKEGKDRIKKLGLTMQYPEGYLEALANREREKENSKREEEEQQEGGFASPRTGKGKWKRKSAGGGPSRAGSPRRTSKKTKVEPY
notes: also called the Spacer; Spacer peptide
Kd [2]: 1.48 µM and 1.59 µM | stoichiometry N [2]: 1 | Kd [4]: 2.69 µM | Kd [5]: 10.7 µM | fold decrease in binding affinity in the presence of the Linker [6]: 2 fold

B11: Spacer K648D (domain or fragment, human, UniProt Q96T88 587-674, looked up)
chain: PGPWTKEGKDRIKKLGLTMQYPEGYLEALANREREKENSKREEEEQQEGGFASPRTGKGKWDRKSAGGGPSRAGSPRRTSKKTKVEPY
binding result [2]: binds

B12: Spacer R649A (domain or fragment, human, UniProt Q96T88 587-674, looked up)
chain: PGPWTKEGKDRIKKLGLTMQYPEGYLEALANREREKENSKREEEEQQEGGFASPRTGKGKWKAKSAGGGPSRAGSPRRTSKKTKVEPY
fold decrease in binding affinity against the wild-type Spacer [2]: ~13 fold

B13: Spacer S639D (domain or fragment, human, UniProt Q96T88 587-674, looked up)
chain: PGPWTKEGKDRIKKLGLTMQYPEGYLEALANREREKENSKREEEEQQEGGFADPRTGKGKWKRKSAGGGPSRAGSPRRTSKKTKVEPY
binding result [2]: binds

B14: Spacer S651D (domain or fragment, human, UniProt Q96T88 587-674, looked up)
chain: PGPWTKEGKDRIKKLGLTMQYPEGYLEALANREREKENSKREEEEQQEGGFASPRTGKGKWKRKDAGGGPSRAGSPRRTSKKTKVEPY
binding result [2]: binds

B15: Spacer S666D (domain or fragment, human, UniProt Q96T88 587-674, looked up)
chain: PGPWTKEGKDRIKKLGLTMQYPEGYLEALANREREKENSKREEEEQQEGGFASPRTGKGKWKRKSAGGGPSRAGSPRRTDKKTKVEPY
binding result [2]: binds

B16: unmodified peptide of Spacer^642–664 (peptide, UniProt Q96T88 642-664, looked up)
peptide: TGKGKWKRKSAGGGPSRAGSPRR
binding result [2]: binds

B17: Linker peptide (289–306) (peptide, UniProt Q96T88 289-306, looked up)
peptide: MVDNPMRRKSGPSCKHCK
notes: also called the Linker
Kd [2]: 24 µM

B18: GST-tagged TTD–PHD of UHRF1 (domain or fragment, human, UniProt Q96T88 134-366, looked up)
chain: LYKVNEYVDARDTNMGAWFEAQVVRVTRKAPSRDEPCSSTSRPALEEDVIYHVKYDDYPENGVVQMNSRDVRARARTIIKWQDLEVGQVVMLNYNPDNPKERGFWYDAEISRKRETRTARELYANVVLGDDSLNDCRIIFVDEVFKIERPGEGSPMVDNPMRRKSGPSCKHCKDDVNRLCRVCACHLCGGRQDPDKQLMCDECDMAFHIYCLDPPLSSVPSEDEWYCPECRND
notes: also called GST-TTD–PHD
binding result [7]: binds

B19
binding result [8]: binds

B20: replication focus targeting sequence (RFTS) of DNMT1 (domain or fragment, UniProt P26358 400-533, looked up)
chain: EALPQHKLTCFSVYCKHGHLCPIDTGLIEKNIELFFSGSAKPIYDDDPSLEGGVNGKNLGPINEWWITGFDGGEKALIGFSTSFAEYILMDPSPEYAPIFGLMQEKIYISKIVVEFLQSNSDSTYEDLINKIET
notes: DNMT1, RFTS domain; also called RFTS^DNMT1
Kd [8]: 7.09 µM

B21: GST-tagged TTD of UHRF1 (domain or fragment, human, UniProt Q96T88 134-285, looked up)
chain: LYKVNEYVDARDTNMGAWFEAQVVRVTRKAPSRDEPCSSTSRPALEEDVIYHVKYDDYPENGVVQMNSRDVRARARTIIKWQDLEVGQVVMLNYNPDNPKERGFWYDAEISRKRETRTARELYANVVLGDDSLNDCRIIFVDEVFKIERPGE
notes: pGEX-6p-1 derivative vector; also called GST-TTD
binding result [7]: binds

Source: publication PMC4822050, “Hemi-methylated DNA opens a closed conformation of UHRF1 to facilitate its histone recognition” (Nature Communications, 2016)
